From the nanobody polyreactivity screen of Harvey et al. (2022)

Experiment: yeast display, Sf9 membrane polyspecificity reagent, FACS + sequencing; frameworks hold sequencing errors
Method in brief: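 In a synthetic yeast display library (Saccharomyces cerevisiae BJ5465), nanobody expression was induced with galactose for 36–48 hours. FACS gates were set low and high (top ~1%) using anti-HA fluorescence for expression and streptavidin fluorescence for binding of the Sf9 membrane reagent. Each polyreactivity label is drawn from the gate of origin.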

| Sequence | polyreactivity (PSR sort gate) |
| --- | --- |
| QVQLVESGGGLVQAGGSLRLSCAASGSILFYYAMGWYRQAPGKERELVAAITWRGGSTYYADSVKGRFTISRDNAKNTVYLQMNSLKPEDTAVYYCAADLYWYRYYGYDYWGQGTQVTVSS | low polyreactivity |
| QVQLVESGGGLVQAGGSLRLSCAASGSILGFNAMGWYRQPPGKERELVAAIRWSGDSTYADSVKGRFTISRDNAKNSVYLQMNSLKPEDTAVYYCNAVTTYGYWYKYDYWGQGTQVTVSS | low polyreactivity |
| QVQLVESGGGLVQAGGSLRLSCAASGSILGRYAMGWYRQAPGKERELVAVITSGGSTNYADSVKGRFTISRDNAKNTVYLQMNSLKPEDTAVYYCAVRPYELHRLADQPGGDDYWGQGTQVTVSS | low polyreactivity |
| QVQLVESGGGLVQAGGSLRLSCAASGSILGSYAMGWYRQAPGKERELVAAISWNGARTYYADSVKGRFTISRDNAKNTVYLQMNSLKPEDTAVYYCARVRVGRTTFDYWGQGTQVTVSS | low polyreactivity |
| QVQLVESGGGLVQAGGSLRLSCAASGSILGTYAMGWYRQAPGKERELVAAISWNGGSTYYADSVKGRFTISRDNAKNTVYLQMNSLKPEYTAVYYCAARQWSQGWYDYWGQGTQVTLSS | high polyreactivity |
| QVQLVESGGGLVQAGGSLRLSCAASGSILGWYAMGWYRQAPGKERQLVAAISYSGTSTYYADSVKGRFTISRDNAKNPVYLQMNSLNPEDTAVYYCNAFFSSRYYRVGSGYDYWGQGTQVTVSS | high polyreactivity |
| QVQLVESGGGLVQAGGSLRLSCAASGSILGYYAMGWYRPAPGKERELVAAISGRGGSTYYADSVKGRFTISRDNAKNTVYLQMNSLKPEDTAVYYCAVVWGSYYWGQGGGDYWGQGTQVTVSS | high polyreactivity |
| QVQLVESGGGLVQAGGSLRLSCAASGSILLNNAMGWYRQAPGKERELVAAISLSGGGSTYYADSVKGRFTISRDNAKNTVYLQMNSLKPEDTAVYYCNADDPYLYYDSYDYWGQGTQVTVSS | low polyreactivity |
| QVQLVESGGGLVQAGGSLRLSCAASGSILLYYTMGWYIQAPGKEWELVAAISWSGGSTYYADSVKGRFTISRDNAKNTVYLLMISLKPEDTAVYYCATRSVQGSYFAGYGYWGQGTQVTVSS | low polyreactivity |
| QVQLVESGGGLVQAGGSLRLSCAASGSILNAYAMGWYRQAPGKERELVAAITGSDGSTYYADSVKGRFTISRDNAKNTVYLQMNSLKPEDTAVYYCNADYSQPVYWWLDDYWGHGTQVTVSS | low polyreactivity |
| QVQLVESGGGLVQAGGSLRLSCAASGSILNFYAMGWYRQAPGKERELVAAISSGGSTNYADSVKGRFTISRDNAKNTVYLQMNSLKPEDTAVYYCAATGGDRYEAYYYWGQGTQVTVSS | low polyreactivity |
| QVQLVESGGGLVQAGGSLRLSCAASGSILNPNAMGWSRQAPGKERELVASISKSGGSTYYADSVKGRFTISRDNAKNTVYLQMNSLKPEDTAVYYCAAAFVSVRERYGYWGQGTQVTVSS | high polyreactivity |
| QVQLVESGGGLVQAGGSLRLSCAASGSILPLYAMGWYRQAPGKERELVATISNAGSTTYADSVKGRFTISRDNAKNTVYLQMHSLKPEVTAVYYCNAESEWGWVYVGYDYWGQGTQVTVSS | low polyreactivity |
| QVQLVESGGGLVQAGGSLRLSCAASGSILPRYGMGWYSQAPGKEREFVAAISWRGGRTYYADSVKGRFTISRDTAKHTVYVQMNSLKPEDTAVYYCAARAHIYTRLDYWGQGTEVTVSS | high polyreactivity |
| QVQLVESGGGLVQAGGSLRLSCAASGSILQSYAMGWYRQAPGKERELVAAISGSGGSTYYADSVKGRFTISRDNAKNTVYLQMNSLKPEDTAVYYCAKGPLYRTSRGEFGYWGQGTQVTVAS | low polyreactivity |
| QVQLVESGGGLVQAGGSLRLSCAASGSILQVYAMGWYRQAPGKERELFADINYTTGSTYYADSVKGRFTISRDNAKNTVYLQMNSLKPEDTAVYYCAKDFGFQSDSWGQGTQVTVSS | low polyreactivity |
| QVQLVESGGGLVQAGGSLRLSCAASGSILRKYAMGWYRQAPGKERELVAAISGSGGRTHYADSVKGRFTISRDNAKNTVYLQMNSLKPEDTAVYYCARRIKLGQRQGGYYWGQGTQVTVSS | high polyreactivity |
| QVQLVESGGGLVQAGGSLRLSCAASGSILRRNAMGWYRPAPGKERELFAGISRGGNTNYADSVNGRFTISRDNAKNTVYLQMNSLKPEDTAVYYCDTDGYGRWGRLTFTYWGQGTQVTVSS | low polyreactivity |
| QVQLVESGGGLVQAGGSLRLSCAASGSILRSYAMGWYRQAPGKERELVAVINGSGGRTYYADSVKGRFTISRDNAKNTVYLQMNSLKPEDTAVYYCAARRHTKRPGYDYWGQGTQVTVSS | low polyreactivity |
| QVQLVESGGGLVQAGGSLRLSCAASGSILRTYTMGWYRQAPGKERELVAAISSSGGRTYYADSVKGRFTISRDNAKNTVYLQMNSLKPEDTAVYYCNAAYTTWRRGPMNYWGQGTQVTVSS | high polyreactivity |

| Sequence | polyreactivity (PSR sort gate) |
| --- | --- |
| QVQLVESGGGLVQAGGSLRLSCAASGSILRYYTMGWYRQAPGKERELVASIRATGGNTYYADSVKGRFTISRDNAKNTVYLQMNSLKPEDTAVYYCAARYRKKYYWGQGTQVTVSS | high polyreactivity |
| QVQLVESGGGLVQAGGSLRLSCAASGSILSAYSMGWYRQAPGKARELVAAISKSGSSTYYSDSVKGRFTISRDNAKNTVYLQMNSLKPEDTAVYYCAAESSSYYGYYIYYYWGQGTQVTVSS | high polyreactivity |
| QVQLVESGGGLVQAGGSLRLSCAASGSILSENAMGWYRQAPGKERELVATISGSGSSTYYADSVKGRFTISRDNAKNTVYLQMNSLKPEDTAVYYCAAKYYLYWWPYDYWGQGTQVTVSS | low polyreactivity |
| QVQLVESGGGLVQAGGSLRLSCAASGSILSHNAMGWYRQAPGKERELVAAITTSGSTTYADSVKGRFTISRDNAKNTVYLQMNSLKPEDTAVYYCNARPDSWSDTAQNRYDYWGQGTQVTVSS | low polyreactivity |
| QVQLVESGGGLVQAGGSLRLSCAASGSILTRNAMGWYRQAPAKEREFVARITYSGGRTYYADSVKGRFTISRDNAKNTVYLQMNSLKPEDTAVYYCAKTDRYSLGYWGQGTQVTVSS | low polyreactivity |
| QVQLVESGGGLVQAGGSLRLSCAASGSILTVYSMGWYRQAPGKERELVARIRSGDRTYYADSVKGRFTISRDNAKNTVYLQMNSLKPEDTAVYYCAAGSQRRYYHTNWDSFNYWGQGTQVTVSS | low polyreactivity |
| QVQLVESGGGLVQAGGSLRLSCAASGSILVNNAMGWYRQAPGKERELVAAISRSGTRTFYADSVKGRFTISRENAKNTVYLQMNSLKPEDTAVYYCAVDYYYRMDYWGQGTQVTVSS | high polyreactivity |
| QVQLVESGGGLVQAGGSLRLSCAASGSILWLYVMGWYRQAPGKERELVATITSSGGSTYYADSVKGRFTISRDNAKNTVYLQKNSLKPEDTAVYYSAAQTYNSYDYWGQATQVTVSS | low polyreactivity |
| QVQLVESGGGLVQAGGSLRLSCAASGSILWQYAIGRYRQAPGKEMELVAAINQRGGSTYYADSVKGRFTISRDYAKNTVYLQMNSLKPEDTAVYYCNTYPTRTYPSYYYWGQGTQVTVSS | high polyreactivity |
| QVQLVESGGGLVQAGGSLRLSCAASGSILWQYAMGWSRQAPGKERELVAAITYSGASTHYADSVKGRFTISRDNAKNTVYLQMNRLKPEDTAVYYCAAGYWYRYAALRYDHWGQGTQVTVSS | low polyreactivity |
| QVQLVESGGGLVQAGGSLRLSCAASGSILWVNAMGWYRQAPGKERELVAAITSGGDSTNYADSVKGRFTISRDNAKNTVYLQMNSLKPEDTAVYYCNAEFWLNEDLDYDTSYDYWGQGTQVTVSS | low polyreactivity |
| QVQLVESGGGLVQAGGSLRLSCAASGSILYANAMGWYRQAPGKDRELVAAISARGTSTYYADSVKGRFTISRDNAKNTVYLQMNSLKPEDTAVYYCAAYVRKKLPSALMNYWGQGTQVTVSS | high polyreactivity |
| QVQLVESGGGLVQAGGSLRLSCAASGSILYLNAMGWYRQAPGKERELVAAITWSGGSTSYADSVKGRFTISRDNAKNTVYLQMISLKPEDTAVYYCAAVRRGYGGVYYAGGYWGQGTQVTVSS | low polyreactivity |
| QVQLVESGGGLVQAGGSLRLSCAASGSILYPNAMGLYRQAPGKERELVAAISSSGGSTYYADSVKGRFTISRDNAKNTVYLQMNSLKPEDTAVYYCAADHYIPIYSKYDYWGQVTQVTVSS | high polyreactivity |
| QVQLVESGGGLVQAGGSLRLSCAASGSILYRNAMGWYRQAPGKEREFVAAISWRGGSTYYADSVKGRFTISRDNAKNTVYLQMNSLKPEDTAVYYCAKGGYRSPPGRYDGYYWGQGTQVTVSS | high polyreactivity |
| QVQLVESGGGLVQAGGSLRLSCAASGSILYRYTMGWYRQAPGKERELVAAITKRGGRTYYADSVKGRFTISRDNAKNTVYLQMNSLKPEDTAVYYCAAKYYTGGSFEMYYWGQGTQVTVSS | high polyreactivity |
| QVQLVESGGGLVQAGGSLRLSCAASGSILYTNAMGWYRQAPGKERELVAAITTSGASTYYADSVKGRFTISRDNAKNTVYLQMNSLKPEDTAVYDCAAPSRYRYYWGNYWGQGTQVTVSS | high polyreactivity |
| QVQLVESGGGLVQAGGSLRLSCAASGSILYVYAMGWYRQAPGKERELVAAISFSGGSTYYADSVKGRFTISRDNAKNTVYLQMNSLKPEDTAVYYCAAALGPGAWYGDKYEYEYWGQGTQVTVSS | low polyreactivity |
| QVQLVESGGGLVQAGGSLRLSCAASGSILYVYAMGWYRQAPGKERELVATITGRVVSKNYADSVKGRLTLSRDNAKNSVYLQMNSLKPEDTAVYYCAARTRRRRGEYDYWGQGTQVTVSS | high polyreactivity |
| QVQLVESGGGLVQAGGSLRLSCAASGSILYVYAMGWYTQAPGKERELVAAISNRDGSTYYADSVKGRFTISRDNAKNTVYLQMNSLKPEDTAVYYCNADGYGDYSFLKYRFEYDYWGQGTQVTVSS | low polyreactivity |
